Key:
重组CD47-Fc融合蛋白 = target: T1, 重组CD47-Fc融合蛋白 (human, UniProt Q08722 19-139, limits assumed); experiment: competition ELISA: CD47-Fc coated, antibody blocks binding of SIRPα-His, anti-His-HRP detection
T1 construct: not shown: Fc part

[1] = target: CD47蛋白 (analyte in the ForteBio assay) (human, UniProt Q08722 19-139, limits assumed); experiment: BLI (ForteBio), antibody captured on Protein A sensor, CD47 protein in solution at 6 concentrations
CD47-his蛋白 = CD47-his蛋白 (human); experiment: screening ELISA of hybridoma supernatant on coated CD47-his
Chain of CD47-his蛋白 (human) (chain, as listed by the source limits assumed): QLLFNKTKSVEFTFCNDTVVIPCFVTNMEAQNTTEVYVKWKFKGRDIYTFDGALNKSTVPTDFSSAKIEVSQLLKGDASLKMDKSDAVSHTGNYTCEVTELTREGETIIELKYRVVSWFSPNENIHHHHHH

Chain of CD47蛋白 (analyte in the ForteBio assay) (Q08722 19-139 limits assumed): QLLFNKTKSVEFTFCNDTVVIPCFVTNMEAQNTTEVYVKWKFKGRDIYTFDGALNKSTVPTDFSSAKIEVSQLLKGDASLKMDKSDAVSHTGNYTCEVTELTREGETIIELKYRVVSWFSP
T1 sequence (Q08722 19-139 limits assumed): as above

EC50 (重组CD47-Fc融合蛋白): 170 pM
Kd [1]: 12.9 pM
koff [1]: 1.1e-05 s⁻¹
kon [1]: 853000 M⁻¹ s⁻¹
binding result (CD47-his蛋白): binds
B1: 抗CD47单克隆抗体3D8 (杂交瘤细胞株3D8, CGMCC No:17293) (antibody, V domains shown)
VH: EVKLQESGAELMKPGASVKISCKATGYTFSRYWIEWVKQRPGHGLEWIGDILPGTSNTNYNEKFKGKATFTADSSSNTAYMQLSSLTSEDSAVYYCARRGLLRFDCWGQGTTVTVSS
VL: DIQLTQSPAIMSASPGEKVTMTCRASSSVSSSYLHWYQQKSGASPKLWIYSSSTLASGVPARFSGSGSGTSYSLTISSVEAEDAATYYCQQYSGYPLTFGSGTKLGIKR
